± gives the standard deviation of the averaged measurements.
B1: library; a variant is named by its letters at N, in order (parent)
chain: GCUGUCACCGAGAAACUGUGAAGUAUAUCUUAAACCUGGGCACUUAAAAGAUAUAUGGAGUUAGUAGUGCAACCUGCUCGGUCUGAUGAGUCCNNNNNNGGACGAAACAGC

Key:
[1] = variants of: B1; assay: normalized RNA/DNA level without ligand (relative to sTRSVctl = 100) (log10 (% of sTRSVctl)); HEK293T; ligand: cyclic di-GMP (c-di-GMP-II aptamer); higher = less ribozyme self-cleavage, higher mRNA level; conditions: reporter: mCherry (pCS4076), ligand present: no
Procedure, shortened: (§1)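 Ribozyme switch library plasmids linked to reporters were introduced into HEK293T cells at 4 µg per 6-well well, with ligand, if any, added 1 h before. Total RNA was extracted with EDTA 72 h later, reverse-transcribed, amplified, barcoded and sequenced. RNA level was computed from RNA over DNA reads relative to a spiked-in non-cleaving sequence or the top sequences, then scaled and log-transformed. The top set was 25 sequences, values were ×100 and log10, and the cutoff was ≥100 DNA reads.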

[2] = variants of: B1; assay: normalized RNA/DNA level with ligand (relative to sTRSVctl = 100) (log10 (% of sTRSVctl)); HEK293T; ligand: cyclic di-GMP (c-di-GMP-II aptamer); ligand concentration (+) RNA-Seq: 1 mM; higher = less ribozyme self-cleavage, higher mRNA level; conditions: reporter: mCherry (pCS4076), ligand present: yes
Procedure, shortened: as §1

Variant	normalized RNA/DNA level without ligand (log10) [1]	normalized RNA/DNA level with ligand (log10) [2]
AAAACU	1.669 ± 0.0017	1.79 ± 0.086
GAAAUC	1.659 ± 0.012	1.81 ± 0.11
AAAGUG	1.52 ± 0.099	1.67 ± 0.074
AAAGUA	1.42 ± 0.076	1.66 ± 0.12
UACAUG	1.711 ± 0.013	1.85 ± 0.14
UACAUC	1.64 ± 0.037	1.81 ± 0.13
UACAUA	1.712 ± 0.017	1.86 ± 0.065
UACAUU	1.59 ± 0.034	1.78 ± 0.09
UAAGGU	1.579 ± 0.013	1.77 ± 0.073
UAAGGC	1.66 ± 0.058	1.81 ± 0.056
UAAGGG	1.58 ± 0.031	1.73 ± 0.13
GAACAA	1.55 ± 0.03	1.7 ± 0.14
GAACAC	1.641 ± 0.014	1.78 ± 0.1
GAACAU	1.64 ± 0.033	1.78 ± 0.097
CACCCA	1.59 ± 0.097	1.75 ± 0.077
CACCCG	1.81 ± 0.025	1.94 ± 0.12
CAAUGA	1.53 ± 0.056	1.74 ± 0.12
CAAUGC	1.76 ± 0.076	1.83 ± 0.14
CAAUGG	1.664 ± 0.0083	1.8 ± 0.087
CACACG	1.75 ± 0.036	1.83 ± 0.095
UACCCG	1.766 ± 0.014	1.9 ± 0.063
UACCCC	1.7914 ± 0.0016	1.89 ± 0.11
UACACA	1.7 ± 0.041	1.84 ± 0.083

Variant	normalized RNA/DNA level without ligand (log10) [1]	normalized RNA/DNA level with ligand (log10) [2]
UACACG	1.76 ± 0.029	1.86 ± 0.088
UACACC	1.6664 ± 0.0013	1.8 ± 0.1
UACACU	1.714 ± 0.014	1.84 ± 0.059
CAAUUG	1.733 ± 0.0033	1.87 ± 0.065
CAAUUC	1.66 ± 0.019	1.82 ± 0.065
CAAUUA	1.32 ± 0.1	1.53 ± 0.05
CAAUUU	1.51 ± 0.095	1.71 ± 0.081
CAACUA	1.39 ± 0.069	1.6 ± 0.15
CAACUG	1.75 ± 0.034	1.82 ± 0.13
CAACUC	1.685 ± 0.011	1.82 ± 0.086
CAACUU	1.49 ± 0.093	1.69 ± 0.078
UAAAGC	1.676 ± 0.0024	1.82 ± 0.1
UAAAGU	1.54 ± 0.076	1.77 ± 0.048
UAAAGG	1.635 ± 0.0018	1.78 ± 0.088
UAAUUC	1.73 ± 0.021	1.84 ± 0.099
UAAUUA	1.7 ± 0.018	1.85 ± 0.062
UAAUUG	1.71 ± 0.04	1.83 ± 0.13
CAACAC	1.58 ± 0.028	1.77 ± 0.12
CAACAG	1.6987 ± 0.0016	1.85 ± 0.13
UAACCU	1.71 ± 0.031	1.86 ± 0.072
UAACCA	1.74 ± 0.036	1.86 ± 0.13
UAACCG	1.72 ± 0.12	1.81 ± 0.13
UAACCC	1.77 ± 0.021	1.9 ± 0.08

Variant	normalized RNA/DNA level without ligand (log10) [1]	normalized RNA/DNA level with ligand (log10) [2]
CAAACU	1.54 ± 0.045	1.68 ± 0.072
GAAGGU	1.58 ± 0.08	1.77 ± 0.052
GAAGGC	1.62 ± 0.023	1.79 ± 0.13
GAAGGG	1.53 ± 0.048	1.69 ± 0.079
GAAACU	1.63 ± 0.035	1.79 ± 0.1
GACACA	1.63 ± 0.018	1.77 ± 0.07
GACACG	1.7112 ± 0.0013	1.82 ± 0.12
GACACC	1.71 ± 0.044	1.83 ± 0.075
AAAUAC	1.665 ± 0.0071	1.8 ± 0.11
AAAUAG	1.54 ± 0.025	1.7 ± 0.16
UAACAC	1.68 ± 0.035	1.83 ± 0.13
UAACAA	1.7 ± 0.034	1.83 ± 0.16
UAACAG	1.68 ± 0.02	1.86 ± 0.098
UAACAU	1.62 ± 0.019	1.76 ± 0.08
UACCUC	1.79 ± 0.0062	1.93 ± 0.093
UACCUA	1.68 ± 0.018	1.82 ± 0.081
UACCUU	1.637 ± 0.0055	1.82 ± 0.12
UACCUG	1.724 ± 0.0039	1.87 ± 0.091
CACCGC	1.759 ± 0.015	1.85 ± 0.13
CACCGA	1.6252 ± 0.00013	1.8 ± 0.1
CACCGG	1.754 ± 0.011	1.89 ± 0.12
CACCGU	1.706 ± 0.0036	1.81 ± 0.092
GACAUC	1.67 ± 0.037	1.84 ± 0.059

Variant	normalized RNA/DNA level without ligand (log10) [1]	normalized RNA/DNA level with ligand (log10) [2]
GACAUU	1.66 ± 0.044	1.8 ± 0.074
GACAUG	1.61 ± 0.032	1.75 ± 0.12
AACACC	1.56 ± 0.007	1.73 ± 0.12
AACACG	1.55 ± 0.073	1.74 ± 0.088
UAAUCA	1.756 ± 0.0092	1.87 ± 0.072
UAAUCC	1.8 ± 0.031	1.89 ± 0.077
GAAUCA	1.638 ± 0.0066	1.82 ± 0.1
GAAUCG	1.67 ± 0.041	1.8 ± 0.096
GAAUCU	1.698 ± 0.0076	1.82 ± 0.12
GAAUCC	1.75 ± 0.058	1.86 ± 0.076
AACGAA	1.38 ± 0.059	1.59 ± 0.16
AACGAC	1.6 ± 0.04	1.79 ± 0.12
CAAGGA	1.46 ± 0.077	1.64 ± 0.064
CAAGGC	1.705 ± 0.0097	1.82 ± 0.12
CAAGGU	1.64 ± 0.037	1.8 ± 0.1
CAAGGG	1.6 ± 0.063	1.8 ± 0.072
GAAGCU	1.715 ± 0.017	1.83 ± 0.11
GAAGCC	1.78 ± 0.034	1.89 ± 0.12
UACAAG	1.69 ± 0.02	1.8 ± 0.12
UACAAU	1.64 ± 0.017	1.77 ± 0.13
UACAAA	1.65 ± 0.041	1.8 ± 0.057
GACAAU	1.59 ± 0.062	1.74 ± 0.071
GACAAA	1.47 ± 0.11	1.66 ± 0.077

Variant	normalized RNA/DNA level without ligand (log10) [1]	normalized RNA/DNA level with ligand (log10) [2]
UAAACU	1.71 ± 0.061	1.85 ± 0.15
UAAACG	1.747 ± 0.0073	1.85 ± 0.068
UAAGAA	1.597 ± 0.008	1.74 ± 0.13
UAAGAC	1.647 ± 0.0022	1.82 ± 0.13
UAAGAU	1.597 ± 0.0022	1.79 ± 0.13
UAAGAG	1.61 ± 0.017	1.74 ± 0.086
AAAAUA	1.48 ± 0.041	1.69 ± 0.1
GAACCG	1.7241 ± 0.00012	1.81 ± 0.1
GAACCA	1.677 ± 0.0078	1.8 ± 0.13
GAACCU	1.69 ± 0.033	1.86 ± 0.08
GAAUAU	1.59 ± 0.039	1.79 ± 0.077
GAAUAC	1.62 ± 0.026	1.78 ± 0.095
AAAUCG	1.54 ± 0.12	1.73 ± 0.061
AAAUCA	1.595 ± 0.0024	1.77 ± 0.098
AAAUCC	1.71 ± 0.049	1.83 ± 0.091
AAAUCU	1.7 ± 0.026	1.82 ± 0.13
GACCAC	1.69 ± 0.056	1.85 ± 0.12
GACCAG	1.82 ± 0.088	1.91 ± 0.13
GACCAA	1.52 ± 0.083	1.71 ± 0.065
GACCAU	1.64 ± 0.022	1.79 ± 0.13
UAAUGG	1.676 ± 0.013	1.81 ± 0.087
UAAUGU	1.652 ± 0.0062	1.78 ± 0.087
AACAGG	1.5 ± 0.036	1.66 ± 0.14

— the supplement of paper PMC6757056
